These results are taken from FireProtDB (doi:10.1021/bi702473g).

Sequences and labels used below:
B1: Azurin, P00282 (parent)
chain: MLRKLAAVSLLSLLSAPLLAAECSVDIQGNDQMQFNTNAITVDKSCKQFTVNLSHPGNLPKNVMGHNWVLSTAADMQGVVTDGMASGLDKDYLKPDDSRVIAHTKLIGSGEKDSVTFDVSKLKEGEQYMFFCTFPGHSALMKGTLTLK

Several values for one entry are separate records, joined by “and”; a condition that tells them apart may be missing. Equal values may be shown once.

One data set covers variants of B1. The settings on record: Pseudomonas aeruginosa (strain ATCC 15692 / DSM 22644 / CIP 104116 / JCM 14847 / LMG 12228 / 1C / PRS 101 / PAO1); pH 7.5; 20 °C; GdnHCl; Fluorescence; Tris 30 mM; reversible: Yes; structure 5AZU; whole UniProt chain shown.
Consider MLRKLAAVSLLSLLSAPLLAAECSVDIQGNDQMQFNTNAITVDKSCKQFTVNLSHPGNLPKNVMGHNWVLSTAADMQGVVTDGMASGLDKDYLKPDDSRVIAHTKLIGSGEKDSVTFDVSKLKEGEQYMFFSTFPGHSALMKGTLTLK [C132S], for which the “ddG of mutation (higher = less stable)” value was -1.57 kcal/mol and -2.09 kcal/mol and -0.96 kcal/mol; the denaturant m value was 5.21 kcal/mol/M and 5.82 kcal/mol/M and 4.73 kcal/mol/M; the “denaturant midpoint (higher = more stable)” value is 2.09 M and 1.85 M and 2.17 M; the unfolding free energy is 10.9 kcal/mol and 11.4 kcal/mol and 10.3 kcal/mol.

Still in this data set, the particulars now being: Pseudomonas aeruginosa (strain ATCC 15692 / DSM 22644 / CIP 104116 / JCM 14847 / LMG 12228 / 1C / PRS 101 / PAO1); pH 7.5; -15 °C; GdnHCl; Fluorescence; Tris 30 mM; NaCl 5.0 M; reversible: Yes; structure 5AZU; whole UniProt chain shown.
Take MLRKLAAVSLLSLLSAPLLAAECSVDIQGNDQMQFNTNAITVDKSCKQFTVNLSHPGNLPKNVMGHNWVLSTAADMQGVVTDGMASGLDKDYLKPDDSRVIAHTKLIGSGEKDSVTFDVSKLKEGEQYMFFSTFPGHSALMKGTLTLK [C132S]: the denaturant m value is 6.69 kcal/mol/M and 6.81 kcal/mol/M and 5.02 kcal/mol/M; the “denaturant midpoint (higher = more stable)” value was 1.35 M and 1.38 M and 1.4 M; the unfolding free energy is 9.05 kcal/mol and 9.4 kcal/mol and 7.01 kcal/mol.
